From patent US20170189508A1 (IMMATICS BIOTECHNOLOGIES, published 2017)
Where two headings read alike, the source gives them in different places.

Legend:
HLA-A*02 [1] = target: HLA-A*02 (human)
HLA-A*02 [2] = target: HLA-A*02 (human); assay: as the table's title states

Row | binding result (HLA-A*02 [1]) | binding result (HLA-A*02 [2]) | Binder
1 | binds | – | KLQNIMMLL [KLQNIMMLL (SEQ ID NO: 230)]
2 | – | binds | RLMEENWNA [RLMEENWNA (SEQ ID NO: 27)]
3 | binds | – | KIIDFLSAL [KIIDFLSAL (SEQ ID NO: 235)]
4 | binds | – | AILAHLNTV [AILAHLNTV (SEQ ID NO: 229)]
